Results from the Immune Epitope Database (IEDB).
Each block holds one sequence with its values, some of them ahead of it.

Tests used:
[1] = biological target: HLA-B*40:01; assay: IEDB peptide-MHC binding, purified MHC/direct/fluorescence; filed as Kd, often an IC50 or EC50 that approximates it; ≥ and ≤ were set here for values at or beyond the usual limits of such assays
[2] = biological target: HLA-B*15:01; assay: as above
[3] = biological target: HLA-A*02:01; assay: as above
[4] = biological target: HLA-A*69:01; assay: as above
[5] = biological target: HLA-A*02:01; assay: IEDB peptide-MHC binding, purified MHC/competitive/fluorescence; ≥ and ≤ were set here for values at or beyond the usual limits of such assays
[6] = biological target: HLA-A*31:01; assay: IEDB peptide-MHC binding, purified MHC/direct/fluorescence; filed as Kd, often an IC50 or EC50 that approximates it; ≥ and ≤ were set here for values at or beyond the usual limits of such assays
[7] = biological target: HLA-A*03:01; assay: as above
[8] = biological target: HLA-A*30:01; assay: IEDB peptide-MHC binding, purified MHC/competitive/radioactivity; filed as Kd, often an IC50 or EC50 that approximates it; ≥ and ≤ were set here for values at or beyond the usual limits of such assays
[9] = biological target: HLA-A*01:01; assay: as above
[10] = biological target: HLA-A*26:01; assay: as above
[11] = biological target: HLA-B*27:05; assay: IEDB peptide-MHC binding, purified MHC/direct/fluorescence; filed as Kd, often an IC50 or EC50 that approximates it; ≥ and ≤ were set here for values at or beyond the usual limits of such assays; details: source organism: Escherichia coli O157:H7
[12] = biological target: HLA-B*07:02; assay: as above; details: source organism: Escherichia coli O157:H7
[13] = biological target: HLA-B*58:01; assay: as above
[14] = biological target: HLA-A*11:01; assay: IEDB peptide-MHC binding, purified MHC/competitive/radioactivity; filed as Kd, often an IC50 or EC50 that approximates it; ≥ and ≤ were set here for values at or beyond the usual limits of such assays
[15] = biological target: HLA-A*11:01; assay: IEDB peptide-MHC binding, purified MHC/direct/fluorescence; filed as Kd, often an IC50 or EC50 that approximates it; ≥ and ≤ were set here for values at or beyond the usual limits of such assays
[16] = biological target: HLA-A*01:01; assay: as above; details: source organism: Yersinia enterocolitica
[17] = biological target: HLA-A*02:03; assay: IEDB peptide-MHC binding, purified MHC/competitive/radioactivity; filed as Kd, often an IC50 or EC50 that approximates it; ≥ and ≤ were set here for values at or beyond the usual limits of such assays
[18] = biological target: HLA-A*02:06; assay: as above
[19] = biological target: HLA-A*02:02; assay: as above
[20] = biological target: HLA-B*46:01; assay: IEDB peptide-MHC binding, purified MHC/direct/fluorescence; filed as Kd, often an IC50 or EC50 that approximates it; ≥ and ≤ were set here for values at or beyond the usual limits of such assays; details: source organism: West Nile virus
[21] = biological target: HLA-A*03:01; assay: IEDB peptide-MHC binding, purified MHC/competitive/radioactivity; filed as Kd, often an IC50 or EC50 that approximates it; ≥ and ≤ were set here for values at or beyond the usual limits of such assays; details: source organism: Dengue virus 4 Philippines/H241/1956
[22] = source organism: Mycobacterium tuberculosis variant bovis
[23] = source organism: Zaire ebolavirus
[24] = source organism: Burkholderia pseudomallei
[25] = source organism: Vaccinia virus WR
[26] = source organism: Dengue virus 1 Brazil/97-11/1997
[27] = source organism: Dengue virus 4 Philippines/H241/1956
[28] = source organism: Dengue virus 2 Jamaica/1409/1983
[29] = source organism: Dengue virus 3 Martinique/1243/1999
[30] = source organism: Escherichia coli O157:H7
[31] = source organism: Mycobacterium tuberculosis
[32] = source organism: Francisella tularensis subsp. holarctica LVS
[33] = source organism: Haemophilus influenzae
[34] = source organism: Yersinia enterocolitica
[35] = source organism: SARS coronavirus Tor2
[36] = source organism: Salmonella enterica subsp. enterica serovar Typhimurium

Sequence: AELRHLNPL
Kd ([1]; source organism: Mycobacterium tuberculosis variant bovis BCG str. Pasteur 1173P2): 0.0442 µM

Sequence: AISAQVAAY
Kd ([2]; source organism: Mycobacterium tuberculosis F11): 1.27 µM

Kd ([2]; source organism: Pseudomonas aeruginosa): 0.745 µM
Sequence: ALASFLFGF

Sequence: ALPGPDGVV
Kd [3, 22]: 0.553 µM
Kd [4, 22]: ≥ 20 µM

Sequence: ALSSLAKHG
IC50 [5, 23]: ≥ 91.8 µM

Sequence: ALVCGLRQL
IC50 ([5]; source organism: Sudan ebolavirus): 22.8 µM

Sequence: AQAIGRVER
Kd [6, 24]: 0.0373 µM
Kd [7, 24]: ≥ 20 µM

Sequence: ATKNGNIFV
Kd [8, 25]: 0.00385 µM

Sequence: CIAVGMVTLY
Kd [9, 26]: 1.38 µM
Kd [10, 26]: 0.483 µM

Sequence: CMKSFFGWK
Kd ([7]; source organism: Influenza A virus (A/duck/Fujian/17/2001(H5N1))): 0.848 µM

Sequence: EEITPHCAL
Kd ([1]; source organism: Mammarenavirus lassaense): 0.0266 µM

Sequence: EMADITGSSP
Kd [10, 27]: ≥ 46.7 µM

Sequence: EMAEALKGM
Kd [10, 26]: 8.32 µM

Sequence: ETKQTGSASS
Kd [10, 28]: ≥ 25 µM

Sequence: ETPNMDVIGE
Kd [10, 29]: 1.1 µM

Kd [2, 30]: 1.17 µM
Kd [7, 30]: ≥ 20 µM
Kd [11]: ≥ 20 µM
Kd [3, 30]: ≥ 20 µM
Kd [12]: ≥ 20 µM
Kd [13, 30]: 3 µM
Sequence: ETWVETWAF

Sequence: FCIKILNPY
Kd [10, 26]: 7.7 µM

Sequence: FTEENQWDSA
Kd [9, 29]: 0.197 µM

Sequence: FTNMEVQLI
Kd [9, 26]: 5.85 µM

Sequence: GLFLTTEAV
IC50 [5, 31]: 0.05 µM

Sequence: GLFPFHFTL
Kd [3, 31]: 0.0004 µM

Sequence: GMHMVAGHD
IC50 [5, 23]: 67.8 µM

Sequence: GSLLTCAKFK
Kd [8, 26]: 0.433 µM
Kd [14, 26]: 0.0968 µM

Sequence: GTTATITPQA
Kd ([8]; source organism: Dengue virus 1 Nauru/West Pac/1974): 0.839 µM

Sequence: GVYTGSIGY
Kd [7, 32]: 0.0026 µM
Kd [15, 32]: 0.0016 µM

Sequence: HTIENTTAN
Kd [10, 26]: 2.29 µM

Sequence: HVLMHSPLV
Kd [8, 25]: 0.0299 µM

Kd [3, 33]: 0.218 µM
Kd [4, 33]: 12.9 µM
Kd [13, 33]: 4.79 µM
Sequence: ILWGYGFLQ

Sequence: IMDASSFTL
Kd [2, 34]: 0.139 µM
Kd [16]: 5.7 µM
Kd [1, 34]: 0.432 µM
Kd [3, 34]: 0.0308 µM
Kd [4, 34]: 0.997 µM
Kd [13, 34]: 0.0495 µM

Sequence: IQQLPETYF
Kd ([2]; source organism: SARS-CoV1): 0.188 µM
Kd ([15]; source organism: SARS-CoV1): ≥ 51 µM
Kd ([3]; source organism: SARS-CoV1): 16.8 µM
Kd ([13]; source organism: SARS-CoV1): ≥ 23.4 µM

Sequence: IRSEELSFT
IC50 [5, 23]: ≥ 2410 µM

Sequence: KCIEYVTLN
IC50 ([5]; source organism: Vaccinia virus Copenhagen): ≥ 125 µM

Sequence: KLWAQCVQL
Kd [17, 35]: 0.194 µM
Kd [18, 35]: 0.00947 µM
Kd [19, 35]: 0.0127 µM
Kd ([6]; source organism: SARS-CoV1): 0.303 µM
Kd ([7]; source organism: SARS-CoV1): 2.86 µM
Kd ([3]; source organism: SARS-CoV1): 0.109 µM

Sequence: KQPNRPLFI
Kd [3, 36]: 6 µM
Kd [4, 36]: ≥ 20 µM

Sequence: KTNTGTIGA
Kd [8, 28]: 0.00294 µM

Sequence: KVKFYKREL
Kd [8, 25]: 0.0419 µM

Sequence: KVLDGSPIS
Kd [8, 25]: 0.43 µM

Sequence: KVSSKHQLV
Kd [8, 25]: 0.014 µM

Sequence: LLVAPAYSF
Kd [20]: ≥ 20 µM

Sequence: LSIVSLFPLC
Kd [8, 26]: 0.801 µM

Sequence: LVKDESIQL
Kd [17, 25]: 0.649 µM
Kd [18, 25]: 1.4 µM
Kd [19, 25]: 0.122 µM

Sequence: MLIGIEILN
IC50 [5, 25]: 0.554 µM

Sequence: MQKFTILEYL
Kd [17, 25]: 0.279 µM
Kd [18, 25]: 0.909 µM
Kd [19, 25]: 0.164 µM

Sequence: MSLRSTIIK
Kd [8, 25]: 0.0372 µM

Sequence: MTLMKGASK
Kd [21]: 0.018 µM
Kd [8, 27]: 1.52 µM
Kd [14, 27]: 0.143 µM

Sequence: NILMDSIFV
Kd [17, 25]: 0.223 µM
Kd [18, 25]: 0.17 µM
Kd [19, 25]: 0.252 µM

Sequence: NLCKYLRGHT
Kd [17, 25]: 8.04 µM
Kd [18, 25]: ≥ 69.8 µM
Kd [19, 25]: ≥ 39.6 µM

Sequence: NLVQYRILPM
Kd [17, 25]: 1.33 µM
Kd [18, 25]: ≥ 24.5 µM
Kd [19, 25]: 3.99 µM

Sequence: NVSGVPHSV
Kd [17, 25]: 0.024 µM
Kd [18, 25]: 0.278 µM
Kd [19, 25]: 0.825 µM

Sequence: PLGVIHNST
IC50 [5, 23]: ≥ 120 µM

Sequence: PTDMLKLFT
Kd [17, 25]: ≥ 47 µM
Kd [18, 25]: ≥ 69.2 µM
Kd [19, 25]: ≥ 29.1 µM
